{
  "source": "paper PMC6016253",
  "about": "“The ICP27 Homology Domain of the Human Cytomegalovirus Protein UL69 Adopts a Dimer-of-Dimers Structure” (mBio, 2018)",
  "proteins": {"B1": {"name": "UL69short (HCMV UL69 residues 248 to 536) (domain or fragment)", "chain": "PSSTSPVYDLQRYTAESLRLAPYPADLKVPTAFPQDHQPRGRILLSHDELMHTDYLLHIRQQFDWLEEPLLRKLVVEKIFAVYNAPNLHTLLAIIDETLSYMKYHHLHGLPVNPHDPYLETVGGMRQLLFNKLNNLDLGCILDHQDGWGDHCSTLKRLVKKPGQMSAWLRDDVCDLQKRPPETFSQPMHRAMAYVCSFSRVAVSLRRRALQVTGTPQFFDQFDTNNAMGTYRCGAVSDLILGALQCHECQNEMCELRIQRALAPYRFMIAYCPFDEQSLLDLTVFAGTT", "notes": "UL69 of human cytomegalovirus (HCMV), 744 amino acids; residues 248 to 536: ICP27 homology domain only; gene synthesis, codon optimized; HRV3C protease-cleavable N-terminal thioredoxin tag plus Strep-tag; not shown: thioredoxin, N-terminal, cleaved"}, "B2": {"name": "UL69long (HCMV UL69 residues 200 to 540) (domain or fragment)", "chain": "GPQQQQMLALIDDELDAMDEDELQQLSRLIEKKKRARLQRGAASSGTSPSSTSPVYDLQRYTAESLRLAPYPADLKVPTAFPQDHQPRGRILLSHDELMHTDYLLHIRQQFDWLEEPLLRKLVVEKIFAVYNAPNLHTLLAIIDETLSYMKYHHLHGLPVNPHDPYLETVGGMRQLLFNKLNNLDLGCILDHQDGWGDHCSTLKRLVKKPGQMSAWLRDDVCDLQKRPPETFSQPMHRAMAYVCSFSRVAVSLRRRALQVTGTPQFFDQFDTNNAMGTYRCGAVSDLILGALQCHECQNEMCELRIQRALAPYRFMIAYCPFDEQSLLDLTVFAGTTTTTA", "notes": "UL69 of human cytomegalovirus (HCMV), 744 amino acids; residues 200 to 540: ICP27 homology domain plus an N-terminal region conserved only in betaherpesviruses; gene synthesis, codon optimized; HRV3C protease-cleavable N-terminal thioredoxin tag plus Strep-tag; also called UL69 tetramer; not shown: thioredoxin, N-terminal, cleaved"}},
  "target": "the molecule itself",
  "assay": "SEC-MALS; 0.5 ml at 1 mg/ml on Superdex 200 10/300 GL, 0.75 ml/min; 20 mM HEPES, 150 mM NaCl, 50 mM L-Arg, 50 mM L-Glu, 1 mM TCEP, pH 7.9",
  "data": [
    {"protein": "B1", "values": [
      {"measurement": "stoichiometry N", "value": 2}
    ]},
    {"protein": "B2", "values": [
      {"measurement": "stoichiometry N", "value": 4}
    ]}
  ]
}
